# Experimental data from US20200262877A1, “ION CHANNEL-BINDING PEPTIDES AND METHODS OF USE THEREOF” (priority 2017, published 2020).
# What was measured:
# TRPA1 = molecular target: T1, TRPA1 (Homo sapiens, UniProt O75762); assay: Ion channel panel (IonWorks Barracuda): TRPA1; type: cell-based; conditions: 100% = no change, <100% = inhibition
# T1 construct: host or cells: HEK293 or CHO
# Method in brief: (§1)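 Peptides were tested in duplicate at final 20 μM and 200 nM, with concentration set by amino acid analysis, in HEPES-buffered saline. They were applied for at least 5 min to HEK293 or CHO cells transfected with each channel. Currents were expressed as % inhibition, 1-(Ipeptide/Icontrol)×100, or % activation, Ipeptide/Icontrol×100, against a channel-matched reference compound.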
# NR2B = molecular target: T2, NR2B (Homo sapiens, UniProt Q13224); assay: Ion channel panel (IonWorks Barracuda): NR2B; type: cell-based; conditions: 100% = no change, <100% = inhibition
# T2 construct: host or cells: HEK293 or CHO
# Method in brief: as §1
# Nav1.5 = Nav1.5 (Homo sapiens, UniProt Q14524); assay: in vitro; conditions: 100% = no change; for Activity of Nav1.5 with peptide, expressed as a percentage of the reference compound: peptide at 0.2 μM; for Activity of Nav1.5 with peptide (percentage of the reference compound): peptide at 20 μM
# Method in brief: as §1
# hERG = hERG (Homo sapiens, UniProt Q12809); assay: in vitro; conditions: 100% = no change, <100% = inhibition
# Method in brief: as §1
# GABA = assay: Ion channel panel (IonWorks Barracuda): GABA; type: cell-based; conditions: 100% = no change, <100% = inhibition
# Method in brief: as §1
# α4β2 = molecular target: T3, α4β2 (Homo sapiens, UniProt P17787+P43681); assay: Ion channel panel (IonWorks Barracuda): α4β2; type: cell-based; conditions: 100% = no change, <100% = inhibition
# T3 construct: host or cells: HEK293 or CHO
# Method in brief: as §1
# NR2A = molecular target: T4, NR2A (Homo sapiens, UniProt Q12879); assay: Ion channel panel (IonWorks Barracuda): NR2A; type: cell-based; conditions: 100% = no change, <100% = inhibition
# T4 construct: host or cells: HEK293 or CHO
# Method in brief: as §1
# TRPV1 = molecular target: T5, TRPV1 (Homo sapiens, UniProt Q8NER1); assay: Ion channel panel (IonWorks Barracuda): TRPV1; type: cell-based; conditions: 100% = no change, <100% = inhibition
# T5 construct: host or cells: HEK293 or CHO
# Method in brief: as §1
# Nav1.7 = molecular target: T6, Nav1.7 (Homo sapiens, UniProt Q15858); assay: cell-based; type: cell-based; conditions: 100% = no change; for Activity of Nav1.7 with peptide, expressed as a percentage of the reference compound: peptide at 0.2 μM; for Activity of Nav1.7 with peptide (percentage of the reference compound): peptide at 20 μM
# T6 construct: host or cells: HEK293 or CHO
# Kir2.1 = molecular target: T7, Kir2.1 (Homo sapiens, UniProt P63252); assay: Ion channel panel (IonWorks Barracuda): Kir2.1; type: cell-based; conditions: 100% = no change, <100% = inhibition
# T7 construct: host or cells: HEK293 or CHO
# Method in brief: as §1
# α3β4 = molecular target: T8, α3β4 (Homo sapiens, UniProt P30926+P32297); assay: Ion channel panel (IonWorks Barracuda): α3β4; type: cell-based; conditions: 100% = no change, <100% = inhibition
# T8 construct: host or cells: HEK293 or CHO
# Method in brief: as §1
# Cav2.1 = molecular target: T9, Cav2.1 (Homo sapiens, UniProt O00555); assay: cell-based; conditions: 100% = no change, <100% = inhibition
# T9 construct: host or cells: HEK293 or CHO
# Method in brief: as §1
# Cav2.2 = molecular target: T10, Cav2.2 (Homo sapiens, UniProt Q00975); assay: cell-based; conditions: 100% = no change, <100% = inhibition
# T10 construct: host or cells: HEK293 or CHO
# Method in brief: as §1
# Kv2.1 = molecular target: T11, Kv2.1 (Homo sapiens, UniProt Q14721); assay: cell-based; conditions: 100% = no change, <100% = inhibition
# T11 construct: host or cells: HEK293 or CHO
# Method in brief: as §1
# Kv1.2 = molecular target: T12, Kv1.2 (Homo sapiens, UniProt P16389); assay: cell-based; type: cell-based; conditions: 100% = no change, <100% = inhibition
# T12 construct: host or cells: HEK293 or CHO
# Method in brief: as §1
# Kv1.3 = molecular target: T13, Kv1.3 (Homo sapiens, UniProt P22001); assay: cell-based; type: cell-based; conditions: 100% = no change, <100% = inhibition
# T13 construct: host or cells: HEK293 or CHO
# Method in brief: as §1
# Kv1.1 = molecular target: T14, Kv1.1 (Homo sapiens, UniProt Q09470); assay: cell-based; type: cell-based; conditions: 100% = no change, <100% = inhibition
# T14 construct: host or cells: HEK293 or CHO
# Method in brief: as §1
# 5HT3a = molecular target: T15, 5HT3a (Homo sapiens, UniProt P46098); assay: Ion channel panel (IonWorks Barracuda): 5HT3a; type: cell-based
# T15 construct: host or cells: HEK293 or CHO
# T15 sequence (P46098 whole entry, looked up): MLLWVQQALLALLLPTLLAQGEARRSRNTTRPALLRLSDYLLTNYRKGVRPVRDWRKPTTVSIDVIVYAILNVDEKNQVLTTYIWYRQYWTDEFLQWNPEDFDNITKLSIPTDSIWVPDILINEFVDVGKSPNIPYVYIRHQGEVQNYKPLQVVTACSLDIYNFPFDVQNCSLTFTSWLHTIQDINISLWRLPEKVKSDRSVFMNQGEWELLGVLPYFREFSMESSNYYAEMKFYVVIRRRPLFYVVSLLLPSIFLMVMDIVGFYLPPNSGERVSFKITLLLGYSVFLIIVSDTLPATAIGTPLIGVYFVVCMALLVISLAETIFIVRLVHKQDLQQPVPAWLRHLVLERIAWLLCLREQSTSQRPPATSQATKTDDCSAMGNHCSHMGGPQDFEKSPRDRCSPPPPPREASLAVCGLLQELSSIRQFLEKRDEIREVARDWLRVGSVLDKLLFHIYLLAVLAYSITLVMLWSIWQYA
# Method in brief: as §1
# [1] = first of two Nav1.5 columns (probably TP1)
# [2] = second of two Nav1.5 columns (probably TP2)
# [3] = first of two Nav1.7 columns (probably TP1)
# [4] = second of two Nav1.7 columns (probably TP2)
# Nav1.5, sequence (Q14524 whole entry): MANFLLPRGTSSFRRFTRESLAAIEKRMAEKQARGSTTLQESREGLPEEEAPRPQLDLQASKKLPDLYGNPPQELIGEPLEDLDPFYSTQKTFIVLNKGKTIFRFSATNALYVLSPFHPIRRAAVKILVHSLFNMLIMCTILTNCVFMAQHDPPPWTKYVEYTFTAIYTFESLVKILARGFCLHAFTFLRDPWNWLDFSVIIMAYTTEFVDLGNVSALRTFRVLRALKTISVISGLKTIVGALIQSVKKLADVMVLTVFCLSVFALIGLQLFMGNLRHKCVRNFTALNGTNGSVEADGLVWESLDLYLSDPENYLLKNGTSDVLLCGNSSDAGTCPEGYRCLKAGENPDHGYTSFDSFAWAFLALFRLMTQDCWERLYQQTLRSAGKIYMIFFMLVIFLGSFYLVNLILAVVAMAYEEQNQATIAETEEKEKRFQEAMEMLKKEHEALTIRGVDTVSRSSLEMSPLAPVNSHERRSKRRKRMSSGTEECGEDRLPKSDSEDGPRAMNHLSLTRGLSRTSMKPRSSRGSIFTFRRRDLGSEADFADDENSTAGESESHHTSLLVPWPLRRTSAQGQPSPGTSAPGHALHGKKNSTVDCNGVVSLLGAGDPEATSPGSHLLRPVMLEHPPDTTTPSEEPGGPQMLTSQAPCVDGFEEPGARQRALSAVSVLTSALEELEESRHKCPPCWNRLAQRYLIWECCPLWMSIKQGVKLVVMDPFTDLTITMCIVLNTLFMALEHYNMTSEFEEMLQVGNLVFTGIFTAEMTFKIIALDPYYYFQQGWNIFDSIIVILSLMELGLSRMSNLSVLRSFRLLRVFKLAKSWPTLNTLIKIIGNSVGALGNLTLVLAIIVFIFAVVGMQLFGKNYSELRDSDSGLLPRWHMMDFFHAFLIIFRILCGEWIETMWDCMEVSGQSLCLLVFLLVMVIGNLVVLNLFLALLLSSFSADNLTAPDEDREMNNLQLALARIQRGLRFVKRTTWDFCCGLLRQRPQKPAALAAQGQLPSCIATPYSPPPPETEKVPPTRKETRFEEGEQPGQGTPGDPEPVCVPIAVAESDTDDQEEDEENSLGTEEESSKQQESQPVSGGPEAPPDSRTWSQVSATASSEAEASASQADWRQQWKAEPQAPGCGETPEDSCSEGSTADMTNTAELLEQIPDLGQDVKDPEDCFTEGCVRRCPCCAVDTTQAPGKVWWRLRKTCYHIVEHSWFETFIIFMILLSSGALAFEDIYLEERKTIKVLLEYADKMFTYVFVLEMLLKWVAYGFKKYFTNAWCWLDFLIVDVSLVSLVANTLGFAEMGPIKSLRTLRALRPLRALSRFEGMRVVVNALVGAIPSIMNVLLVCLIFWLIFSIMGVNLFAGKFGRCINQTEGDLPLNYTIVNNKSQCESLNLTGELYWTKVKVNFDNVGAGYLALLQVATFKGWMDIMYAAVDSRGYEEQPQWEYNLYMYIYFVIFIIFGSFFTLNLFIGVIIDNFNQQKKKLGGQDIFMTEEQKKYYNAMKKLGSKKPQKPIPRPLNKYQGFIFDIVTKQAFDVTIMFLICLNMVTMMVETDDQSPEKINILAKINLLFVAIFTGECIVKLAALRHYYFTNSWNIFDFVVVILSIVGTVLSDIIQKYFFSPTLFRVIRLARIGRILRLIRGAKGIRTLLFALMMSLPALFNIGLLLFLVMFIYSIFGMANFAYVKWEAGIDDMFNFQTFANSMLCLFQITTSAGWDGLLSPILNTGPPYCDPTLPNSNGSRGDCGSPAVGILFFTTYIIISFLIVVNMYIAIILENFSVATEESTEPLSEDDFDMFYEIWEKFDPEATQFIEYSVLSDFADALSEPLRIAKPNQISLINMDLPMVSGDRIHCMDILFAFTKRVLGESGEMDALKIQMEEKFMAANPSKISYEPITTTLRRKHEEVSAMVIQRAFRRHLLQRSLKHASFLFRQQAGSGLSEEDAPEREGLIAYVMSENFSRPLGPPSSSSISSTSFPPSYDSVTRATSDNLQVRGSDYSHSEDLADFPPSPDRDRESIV
# T6 sequence (Q15858 whole entry): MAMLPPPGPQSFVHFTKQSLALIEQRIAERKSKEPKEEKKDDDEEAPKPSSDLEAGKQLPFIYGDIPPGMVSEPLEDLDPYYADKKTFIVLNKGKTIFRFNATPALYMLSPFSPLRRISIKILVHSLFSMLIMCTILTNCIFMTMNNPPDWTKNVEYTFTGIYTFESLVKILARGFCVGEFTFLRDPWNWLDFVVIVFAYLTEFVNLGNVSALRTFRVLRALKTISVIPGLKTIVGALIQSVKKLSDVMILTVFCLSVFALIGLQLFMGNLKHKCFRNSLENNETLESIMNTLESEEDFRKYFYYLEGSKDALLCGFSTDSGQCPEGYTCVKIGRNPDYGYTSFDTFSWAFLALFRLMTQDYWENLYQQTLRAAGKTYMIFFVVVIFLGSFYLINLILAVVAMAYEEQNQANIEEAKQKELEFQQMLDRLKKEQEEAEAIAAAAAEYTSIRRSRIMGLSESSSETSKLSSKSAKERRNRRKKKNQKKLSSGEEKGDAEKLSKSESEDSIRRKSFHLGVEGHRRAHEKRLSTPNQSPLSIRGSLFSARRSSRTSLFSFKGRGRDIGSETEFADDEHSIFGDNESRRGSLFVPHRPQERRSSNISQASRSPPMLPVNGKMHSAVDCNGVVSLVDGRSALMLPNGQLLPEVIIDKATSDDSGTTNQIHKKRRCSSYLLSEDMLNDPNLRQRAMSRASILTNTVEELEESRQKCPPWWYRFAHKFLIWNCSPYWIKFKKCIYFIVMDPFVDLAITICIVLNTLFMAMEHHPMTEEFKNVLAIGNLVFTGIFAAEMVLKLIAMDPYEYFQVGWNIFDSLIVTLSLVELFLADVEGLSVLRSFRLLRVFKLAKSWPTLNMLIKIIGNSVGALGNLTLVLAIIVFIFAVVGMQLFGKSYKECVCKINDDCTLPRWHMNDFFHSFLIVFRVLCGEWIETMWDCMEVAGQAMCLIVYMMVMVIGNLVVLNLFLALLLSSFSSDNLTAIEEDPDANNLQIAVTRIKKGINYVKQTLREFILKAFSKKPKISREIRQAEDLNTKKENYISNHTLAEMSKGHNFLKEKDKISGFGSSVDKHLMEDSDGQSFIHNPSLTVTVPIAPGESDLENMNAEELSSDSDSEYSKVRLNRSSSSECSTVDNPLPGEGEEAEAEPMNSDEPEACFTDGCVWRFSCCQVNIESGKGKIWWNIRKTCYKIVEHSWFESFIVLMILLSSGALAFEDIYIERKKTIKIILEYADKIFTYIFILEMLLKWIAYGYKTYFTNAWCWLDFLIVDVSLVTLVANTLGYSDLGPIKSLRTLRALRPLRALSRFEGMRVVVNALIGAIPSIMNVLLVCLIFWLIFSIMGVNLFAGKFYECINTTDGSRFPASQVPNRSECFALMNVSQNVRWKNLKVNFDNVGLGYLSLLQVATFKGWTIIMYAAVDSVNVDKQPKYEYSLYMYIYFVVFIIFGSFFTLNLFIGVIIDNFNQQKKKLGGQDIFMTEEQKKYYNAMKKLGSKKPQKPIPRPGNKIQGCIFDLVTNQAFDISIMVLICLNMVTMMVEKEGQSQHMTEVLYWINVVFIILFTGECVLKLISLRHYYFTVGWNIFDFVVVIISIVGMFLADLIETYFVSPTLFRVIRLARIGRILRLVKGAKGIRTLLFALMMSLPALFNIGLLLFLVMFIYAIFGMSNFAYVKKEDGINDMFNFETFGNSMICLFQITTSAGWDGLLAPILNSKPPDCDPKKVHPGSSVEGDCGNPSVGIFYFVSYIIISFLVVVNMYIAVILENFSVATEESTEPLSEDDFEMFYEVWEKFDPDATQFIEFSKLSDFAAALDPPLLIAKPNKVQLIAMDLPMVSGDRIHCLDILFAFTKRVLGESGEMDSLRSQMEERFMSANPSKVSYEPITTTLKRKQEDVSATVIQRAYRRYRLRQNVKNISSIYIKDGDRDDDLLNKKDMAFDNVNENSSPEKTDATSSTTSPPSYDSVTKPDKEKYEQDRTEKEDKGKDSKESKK
# T13 sequence (P22001 whole entry): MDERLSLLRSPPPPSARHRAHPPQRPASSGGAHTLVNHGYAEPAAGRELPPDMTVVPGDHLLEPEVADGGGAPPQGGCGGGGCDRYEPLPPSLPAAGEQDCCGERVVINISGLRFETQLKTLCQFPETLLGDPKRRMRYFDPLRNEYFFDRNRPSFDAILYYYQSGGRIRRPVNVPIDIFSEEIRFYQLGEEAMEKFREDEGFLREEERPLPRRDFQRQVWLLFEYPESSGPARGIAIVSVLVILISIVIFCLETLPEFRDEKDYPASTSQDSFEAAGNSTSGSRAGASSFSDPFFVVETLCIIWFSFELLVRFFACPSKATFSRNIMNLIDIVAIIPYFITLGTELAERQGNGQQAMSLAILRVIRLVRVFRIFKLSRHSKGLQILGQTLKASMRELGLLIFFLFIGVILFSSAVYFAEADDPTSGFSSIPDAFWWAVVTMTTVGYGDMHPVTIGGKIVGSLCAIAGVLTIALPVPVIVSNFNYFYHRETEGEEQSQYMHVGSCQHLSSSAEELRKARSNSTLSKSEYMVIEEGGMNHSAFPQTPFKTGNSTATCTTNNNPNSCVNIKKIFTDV
# T14 sequence (Q09470 whole entry): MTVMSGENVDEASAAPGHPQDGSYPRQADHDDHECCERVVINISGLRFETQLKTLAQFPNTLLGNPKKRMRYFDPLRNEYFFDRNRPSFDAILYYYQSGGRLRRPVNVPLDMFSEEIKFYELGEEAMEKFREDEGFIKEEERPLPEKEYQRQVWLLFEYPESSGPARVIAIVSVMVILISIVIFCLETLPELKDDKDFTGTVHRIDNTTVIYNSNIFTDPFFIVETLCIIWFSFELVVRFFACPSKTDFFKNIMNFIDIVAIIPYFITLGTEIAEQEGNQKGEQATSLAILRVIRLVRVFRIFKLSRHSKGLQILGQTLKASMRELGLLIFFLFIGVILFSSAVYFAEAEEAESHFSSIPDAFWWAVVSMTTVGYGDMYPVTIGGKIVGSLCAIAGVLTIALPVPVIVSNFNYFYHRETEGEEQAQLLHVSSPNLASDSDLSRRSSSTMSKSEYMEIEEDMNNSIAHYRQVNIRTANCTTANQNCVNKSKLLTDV
substance,measurement,setting,value
29 (GSVFINVKCRGSPECLPKCKEAIGKSAGKCMNGKCKCYP) [compound 29],"Activity of TRPA1 with peptide, expressed as a percentage of the reference compound",TRPA1; peptide at 0.2 μM,89%
same,Activity of TRPA1 with peptide (percentage of the reference compound),TRPA1; peptide at 20 μM,109%
same,"Activity of NR2B with peptide, expressed as a percentage of the reference compound",NR2B; peptide at 0.2 μM,101%
same,Activity of NR2B with peptide (percentage of the reference compound),NR2B; peptide at 20 μM,82%
same,"Activity of Nav1.5 with peptide, expressed as a percentage of the reference compound",Nav1.5; [1],110%
same,"Activity of Nav1.5 with peptide, expressed as a percentage of the reference compound",Nav1.5; [2],114%
same,Activity of Nav1.5 with peptide (percentage of the reference compound),Nav1.5; [1],103%
same,Activity of Nav1.5 with peptide (percentage of the reference compound),Nav1.5; [2],99%
same,"Activity of hERG with peptide, expressed as a percentage of the reference compound",hERG; peptide at 0.2 μM,95%
same,Activity of hERG with peptide (percentage of the reference compound),hERG; peptide at 20 μM,78%
same,"Activity of GABA with peptide, expressed as a percentage of the reference compound",GABA; peptide at 0.2 μM,123%
same,Activity of GABA with peptide (percentage of the reference compound),GABA; peptide at 20 μM,104%
same,"Activity of a4b2 with peptide, expressed as a percentage of the reference compound",α4β2; peptide at 0.2 μM,108%
same,Activity of a4b2 with peptide (percentage of the reference compound),α4β2; peptide at 20 μM,101%
same,"Activity of NR2A with peptide, expressed as a percentage of the reference compound",NR2A; peptide at 0.2 μM,93%
same,Activity of NR2A with peptide (percentage of the reference compound),NR2A; peptide at 20 μM,87%
same,"Activity of TRPV1 with peptide, expressed as a percentage of the reference compound",TRPV1; peptide at 0.2 μM,109%
same,Activity of TRPV1 with peptide (percentage of the reference compound),TRPV1; peptide at 20 μM,86%
same,"Activity of Nav1.7 with peptide, expressed as a percentage of the reference compound",Nav1.7; [3],97%
same,"Activity of Nav1.7 with peptide, expressed as a percentage of the reference compound",Nav1.7; [4],111%
same,Activity of Nav1.7 with peptide (percentage of the reference compound),Nav1.7; [3],67%
same,Activity of Nav1.7 with peptide (percentage of the reference compound),Nav1.7; [4],62%
same,"Activity of Kir2.1 with peptide, expressed as a percentage of the reference compound",Kir2.1; peptide at 0.2 μM,103%
same,Activity of Kir2.1 with peptide (percentage of the reference compound),Kir2.1; peptide at 20 μM,97%
same,"Activity of a3b4 with peptide, expressed as a percentage of the reference compound",α3β4; peptide at 0.2 μM,108%
same,Activity of a3b4 with peptide (percentage of the reference compound),α3β4; peptide at 20 μM,98%
same,"Activity of Cav2.1 with peptide, expressed as a percentage of the reference compound",Cav2.1; peptide at 0.2 μM,100%
same,Activity of Cav2.1 with peptide (percentage of the reference compound),Cav2.1; peptide at 20 μM,111%
same,"Activity of Cav2.2 with peptide, expressed as a percentage of the reference compound",Cav2.2; peptide at 0.2 μM,116%
same,Activity of Cav2.2 with peptide (percentage of the reference compound),Cav2.2; peptide at 20 μM,100%
same,"Activity of Kv2.1 with peptide, expressed as a percentage of the reference compound",Kv2.1; peptide at 0.2 μM,91%
same,Activity of Kv2.1 with peptide (percentage of the reference compound),Kv2.1; peptide at 20 μM,121%
same,"Activity of Kv1.2 with peptide, expressed as a percentage of the reference compound",Kv1.2; peptide at 0.2 μM,77%
same,Activity of Kv1.2 with peptide (percentage of the reference compound),Kv1.2; peptide at 20 μM,42%
same,"Activity of Kv1.3 with peptide, expressed as a percentage of the reference compound",Kv1.3; peptide at 0.2 μM,21%
same,Activity of Kv1.3 with peptide (percentage of the reference compound),Kv1.3; peptide at 20 μM,0%
same,"Activity of Kv1.1 with peptide, expressed as a percentage of the reference compound",Kv1.1; peptide at 0.2 μM,97%
same,Activity of Kv1.1 with peptide (percentage of the reference compound),Kv1.1; peptide at 20 μM,64%
same,Activity of 5HT3a with peptide (percentage of the reference compound),5HT3a,91%
same,"Activity of 5HT3a with peptide, expressed as a percentage of the reference compound",5HT3a,122%
